# Molecular target: PD-L1 on CHO cells expressing human PD-L1 (CHO-PDL1) (human, UniProt Q9NZQ7 19-290)
# Experiment: flow cytometry cell binding; CHO-PD-L1 cells
# PD-L1 on CHO cells expressing human PD-L1 (CHO-PDL1), sequence (Q9NZQ7 19-290): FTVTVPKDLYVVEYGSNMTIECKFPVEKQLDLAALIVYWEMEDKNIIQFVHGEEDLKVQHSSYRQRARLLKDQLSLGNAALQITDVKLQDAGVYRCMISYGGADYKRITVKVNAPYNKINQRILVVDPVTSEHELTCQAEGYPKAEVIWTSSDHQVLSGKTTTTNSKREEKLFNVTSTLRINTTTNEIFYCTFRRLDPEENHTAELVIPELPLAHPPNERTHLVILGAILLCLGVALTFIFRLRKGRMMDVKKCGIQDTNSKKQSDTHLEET
binder,measurement,value
"IMM2515 (antibody, V domains shown) VH: QVQLVQSGAEVKKPGASVKVSCKASGYTFTSNWMHWVRQAPGQGLEWMGMIHPNSGSSNYNEKFKSRVTMTRDTSTSTVYMELSSLRSEDTAVYYCARSYYGSSPYYFDYWGQGTLVTVSS VL: DIQMTQSPSSLSASVGDRVTITCRASQDIINYLNWYQQKPGKAPKLLIYYTSRLHSGVPSRFSGSGSGTDFTFTISSLQPEDIATYYCQQGDTLPWTFGQGTKVEIKR",EC50,0.0511 nM
